From PMC3087488 (Journal of Oncology, 2011)
Several values for one entry are separate records, joined by “and”; a condition that tells them apart may be missing. Identical values can stand only once.

How the values were obtained:
[1] = bevacizumab 15-mg/kg cohort plus carboplatin/paclitaxel; locally advanced or metastatic NSCLC; grade 3/4, n = 5; cited from earlier work
[2] = plasma gemcitabine concentration in patients; type: in vivo, human; settings: completion of infusion, gemcitabine 1250 mg/m^2
Experimental: Plasma motesanib and gemcitabine concentrations were analyzed using a validated liquid chromatography/tandem mass spectrometry (LC-MS/MS) method, respectively. […] All pharmacokinetic parameter estimates were calculated using standard noncompartmental methods and WinNonlin Professional software on […] (Version 5.1.1, Pharsight Corporation, Mountain View, Calif, USA).

[3] = serum panitumumab concentration in patients; type: in vivo, human; settings: panitumumab 9 mg/kg
[4] = adverse events in patients (CTCAE version 3.0); type: in vivo, human
Experimental: Adverse events were recorded throughout the study and graded (including DLTs) according to the Common Terminology Criteria for Adverse Events, version 3.0. Samples for assessment of hematology, blood chemistry, urinalysis, and thyroid function were collected on day 1 of each cycle.

[5] = 8 patients who received panitumumab and gemcitabine/cisplatin only
[6] = all 41 patients (7%), only in patients who also received motesanib

bevacizumab
patient incidence rate of thrombotic events [1]: 17.6%

Nc1ccn([C@@H]2O[C@H](CO)[C@@H](O)C2(F)F)c(=O)n1 [gemcitabine]
Plasma gemcitabine concentration (cycle 1), mean (SD) ([2]; No motesanib (0 mg QD), n 8): 11000 ng/mL and 11000 (4220) ng/mL | Plasma gemcitabine concentration (cycle 1), mean (SD) ([2]; with motesanib 50 mg QD, n 8): 8450 (7310) ng/mL | Plasma gemcitabine concentration (cycle 1), mean ([2]; with motesanib 75 mg BID, n 2): 8290 (NR) ng/mL | Plasma gemcitabine concentration (cycle 1), mean (SD) ([2]; with motesanib 75 mg QD, n 6): 14400 (6020) ng/mL | Plasma gemcitabine concentration (cycle 1), mean (SD) ([2]; with motesanib 100 mg QD, n 6): 6160 (3690) ng/mL | Plasma gemcitabine concentration (cycle 1), mean (SD) ([2]; with motesanib 125 mg QD, n 11): 16100 ng/mL and 16100 (6800) ng/mL

panitumumab
Serum panitumumab, Cycle 4 postdose mean concentration (SD) ([3]; No motesanib (0 mg QD), n 3): 275 (118) μg/mL | Serum panitumumab, Cycle 4 predose mean concentration (SD) ([3]; No motesanib (0 mg QD), n 4): 56.5 (39.6) μg/mL | Serum panitumumab, Cycle 2 postdose mean concentration (SD) ([3]; No motesanib (0 mg QD), n 6): 186 (62.9) μg/mL | Serum panitumumab, Cycle 2 predose mean concentration (SD) ([3]; No motesanib (0 mg QD), n 6): 11.2 (15.5) μg/mL | Serum panitumumab, Cycle 1 postdose mean concentration (SD) ([3]; No motesanib (0 mg QD), n 8): 206 (76.4) μg/mL | Serum panitumumab, Cycle 4 postdose mean concentration (SD) ([3]; with motesanib 50 mg QD, n 3): 232 (52.8) μg/mL | Serum panitumumab, Cycle 4 predose mean concentration (SD) ([3]; with motesanib 50 mg QD, n 3): 10.5 (6.4) μg/mL | Serum panitumumab, Cycle 2 postdose mean concentration (SD) ([3]; with motesanib 50 mg QD, n 5): 193 (37.5) μg/mL | Serum panitumumab, Cycle 1 postdose mean concentration (SD) ([3]; with motesanib 50 mg QD, n 7): 174 (24.9) μg/mL | Serum panitumumab, Cycle 2 predose mean concentration (SD) ([3]; with motesanib 50 mg QD, n 7): 9.0 (5.8) μg/mL | Serum panitumumab, Cycle 2 postdose mean concentration ([3]; with motesanib 75 mg BID, n 1): 217 (NR) μg/mL | Serum panitumumab, Cycle 2 predose mean concentration ([3]; with motesanib 75 mg BID, n 1): 11.2 (NR) μg/mL | Serum panitumumab, Cycle 1 postdose mean concentration ([3]; with motesanib 75 mg BID, n 2): 189 (NR) μg/mL | Serum panitumumab, Cycle 4 predose mean concentration (SD) ([3]; with motesanib 75 mg QD, n 5): 32.5 (21.3) μg/mL | Serum panitumumab, Cycle 1 postdose mean concentration (SD) ([3]; with motesanib 75 mg QD, n 6): 158 (24.2) μg/mL | Serum panitumumab, Cycle 2 postdose mean concentration (SD) ([3]; with motesanib 75 mg QD, n 6): 194 (21.5) μg/mL | Serum panitumumab, Cycle 2 predose mean concentration (SD) ([3]; with motesanib 75 mg QD, n 6): 13.1 (13.5) μg/mL | Serum panitumumab, Cycle 4 postdose mean concentration (SD) ([3]; with motesanib 75 mg QD, n 6): 218 (26.1) μg/mL | Serum panitumumab, Cycle 4 postdose mean concentration ([3]; with motesanib 100 mg QD, n 2): 290 (NR) μg/mL | Serum panitumumab, Cycle 2 postdose mean concentration (SD) ([3]; with motesanib 100 mg QD, n 4): 224 (51.8) μg/mL | Serum panitumumab, Cycle 4 predose mean concentration (SD) ([3]; with motesanib 100 mg QD, n 4): 41.6 (16.5) μg/mL | Serum panitumumab, Cycle 1 postdose mean concentration (SD) ([3]; with motesanib 100 mg QD, n 5): 194 (27.1) μg/mL | Serum panitumumab, Cycle 2 predose mean concentration (SD) ([3]; with motesanib 100 mg QD, n 5): 18.9 (10.7) μg/mL | Serum panitumumab, Cycle 4 postdose mean concentration (SD) ([3]; with motesanib 125 mg QD, n 3): 170 (55.0) μg/mL | Serum panitumumab, Cycle 4 predose mean concentration (SD) ([3]; with motesanib 125 mg QD, n 3): 21.7 (22.0) μg/mL | Serum panitumumab, Cycle 2 postdose mean concentration (SD) ([3]; with motesanib 125 mg QD, n 6): 213 (39.0) μg/mL | Serum panitumumab, Cycle 2 predose mean concentration (SD) ([3]; with motesanib 125 mg QD, n 6): 13.4 (14.2) μg/mL | Serum panitumumab, Cycle 1 postdose mean concentration (SD) ([3]; with motesanib 125 mg QD, n 11): 203 (82.9) μg/mL | panitumumab-related dermatitis acneiform [4, 5]: 5 patients | panitumumab-related erythema [4, 5]: 5 patients | panitumumab-related nausea [4, 5]: 6 patients | panitumumab-related pruritus [4, 5]: 5 patients | panitumumab-related rash [4, 5]: 6 patients | panitumumab-related anemia ([4]; all 41 patients): 7 patients | panitumumab-related anorexia ([4]; all 41 patients): 11 patients | panitumumab-related diarrhea ([4]; all 41 patients): 16 patients | panitumumab-related dry skin ([4]; all 41 patients): 7 patients | panitumumab-related fatigue ([4]; all 41 patients): 19 patients | panitumumab-related hypomagnesemia ([4]; all 41 patients): 17 patients | panitumumab-related nausea ([4]; all 41 patients): 21 patients | panitumumab-related pruritus ([4]; all 41 patients): 18 patients | panitumumab-related rash ([4]; all 41 patients): 22 patients | panitumumab-related vomiting ([4]; all 41 patients): 12 patients | serious panitumumab-related diarrhea ([4]; all 41 patients (5%)): 2 patients | serious panitumumab-related dehydration ([4]; all 41 patients (7%)): 3 patients | serious panitumumab-related deep vein thrombosis [4, 6]: 3 patients | serious panitumumab-related pulmonary embolism [4, 6]: 3 patients | patients with serious panitumumab-related events ([4]; all 41 patients, eleven patients): 27% | patients who discontinued panitumumab because of adverse events ([4]; all cohorts): 11 patients
